Experimental data published in doi:10.1101/2021.12.16.472998 (bioRxiv, 2021).

Assays:
[1] = molecular target: native LY6S-iso1 protein (hLY6S-E, with its endogenous signal peptide) expressed in HEK293 cells (Homo sapiens, UniProt P0DTL4); experiment: immunostaining of cells or tissue
[2] = molecular target: recombinant hFc-LY6S-iso1 fusion protein (Homo sapiens, UniProt P0DTL4); experiment: immunoblot
[3] = molecular target: endogenous LY6S-iso1 protein in human spleen cells (Homo sapiens, UniProt P0DTL4); experiment: immunostaining of cells or tissue
Sequence of endogenous LY6S-iso1 protein in human spleen cells (P0DTL4 27-134): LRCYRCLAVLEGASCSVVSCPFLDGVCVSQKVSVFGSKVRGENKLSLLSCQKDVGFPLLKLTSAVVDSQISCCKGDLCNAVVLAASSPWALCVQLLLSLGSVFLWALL

Measured: binding result

Sequence of native LY6S-iso1 protein (hLY6S-E, with its endogenous signal peptide) expressed in HEK293 cells (P0DTL4 27-134): as above
Sequence of recombinant hFc-LY6S-iso1 fusion protein (P0DTL4 27-134): as above

B1: anti-LY6S-iso1 monoclonal antibody 5E12 (antibody, V domains shown)
VH: QVQLKQSGAELVRPGASVKLSCKAWGYTFTGYEMHWVKQTPVHGLEWIGAIYPGSGGTAYNQKFKGQATLTVDKSSNTAYIELSSLTSEDSAVYYCTVYDFWGQGTTLTVSS
VL: DVVMTQTPLSLPVGLGDHASISCRSSQSLLKSDGNTYLHWYLQKSGQSPKLLIYKVSNRFSGVPDRFSGSGSGTDFTLKISRVEAEDLGVYFCSQSTHVPYTFGGGTKLEIK
binds: [1] | [2] | [3]
